# Reference: patent US20220172420A1 (Daiichi Sankyo, published 2022)
# B1: anti-HER3 human antibody U1-59 (antibody, human IgG1, kappa, V domains shown)
# VH: QVQLQQWGAGLLKPSETLSLTCAVYGGSFSGYYWSWIRQPPGKGLEWIGEINHSGSTNYNPSLKSRVTISVETSKNQFSLKLSSVTAADTAVYYCARDKWTWYFDLWGRGTLVTVSS
# VL: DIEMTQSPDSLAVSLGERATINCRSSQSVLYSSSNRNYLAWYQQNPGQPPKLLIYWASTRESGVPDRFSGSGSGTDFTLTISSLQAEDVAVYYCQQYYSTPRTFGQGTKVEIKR
# notes: also called non-conjugated anti-HER3 antibody U1-59
# B2: Antibody-drug conjugate (13) (antibody, human IgG1, kappa, V domains shown)
# VH: B1 VH
# VL: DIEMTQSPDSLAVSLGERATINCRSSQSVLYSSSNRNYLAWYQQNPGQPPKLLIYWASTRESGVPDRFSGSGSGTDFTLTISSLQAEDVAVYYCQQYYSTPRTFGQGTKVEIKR
# modifications: may carry the same drug-linker on a cysteine (L chain bound to one drug molecule); position not stated; exatecan drug-linker -(Succinimid-3-yl-N)-CH2CH2CH2CH2CH2-C(=O)-GGFG-NH-CH2-O-CH2-C(=O)-(NH-DX), joined by thioether bonds to cysteines freed by reducing the hinge disulfide bonds; average 6.2 (procedure E) or 7.0 (procedure F) drug molecules per antibody; positions not given
# notes: also called ADC (13)
# B3: Antibody-drug conjugate (3) (antibody, human IgG1, kappa, V domains shown)
# VH: B1 VH
# VL: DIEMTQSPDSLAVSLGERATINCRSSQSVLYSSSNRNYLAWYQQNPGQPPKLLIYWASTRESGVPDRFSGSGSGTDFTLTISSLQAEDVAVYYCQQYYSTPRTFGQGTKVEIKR
# modifications: may carry the same drug-linker on a cysteine (L chain bound to one drug molecule); position not stated; exatecan drug-linker -(Succinimid-3-yl-N)-CH2CH2CH2CH2CH2-C(=O)-GGFG-NH-CH2CH2CH2-C(=O)-(NH-DX), joined by thioether bonds to cysteines freed by reducing the hinge disulfide bonds; average 4.9 drug molecules per antibody (UV method); positions not given
# notes: also called ADC (3)
# Target: T1, human epidermal growth factor receptor 3 (HER3) (human, UniProt P21860 20-1342)
# T1 construct: whole, on cells; The target is the endogenous HER3 of the cell lines used; also called ErbB3; HER3 protein
# Test: flow cytometry on HCC1569 cells, PE-labelled anti-human secondary antibody, one-site specific binding fit
# Procedure: A human breast cancer cell line HCC1569 (CRL-2330) from ATCC was cultured in an RPMI1640 medium (purchased from Invitrogen Corp., containing 10% […] (manufactured by Invitrogen Corp.) and 2 mM L-glutamine (manufactured by Invitrogen Corp.)). The cells were dissociated from the culture plate using ACCUTASE® SOLUTION (Millipore Corp., SCR005) or EDTA (5 mM, phosphate buffered saline (PBS, 137 mM sodium chloride, 2.7 mM potassium chloride, 1.47 mM potassium dihydrogen phosphate, and 10.5 mM disodium hydrogen phosphate)), and the number of living cells was measured by trypan blue treatment.
# The cells of each group were reacted with a primary antibody dilution for 45 minutes on ice and then washed with a FACS buffer. Further, 100 uL of a FACS buffer or a reaction solution of a secondary antibody diluted 1/100 (phycoerythrin (PE)-coupled anti human antibody, Dianova GmbH #709-116-149) was added thereto. The cells were treated for 45 minutes on ice in the dark and then washed with a FACS buffer, and dead cells were excluded using a FACS buffer or a FACS buffer supplemented with 7-aminoactinomycin D (7AAD, Sigma-Aldrich Co. LLC, #A9400, 1.1 ug/mL).
# The equilibrium binding affinity KD and the maximum binding strength Bmax were calculated using GraphPad Prism software.
Binder,Bmax,Kd [nM]
B1,31800,1.67
B2,28400,2.76
B3,28900,1.65
